Laboratory results: the supplement of paper PMC7877785
± gives the uncertainty stated by the source.

Test: self-splicing fitness, log relative to wild type (ln ratio); higher = more splicing; Tetrahymena group I intron in knt gene, E. coli kanamycin selection, DiMSum; sequences stand for … in CUCUCU…GGAGGGAAAAGUUAUCAGGCAUGCACCUGGUAGCUAGUCUUUAAACCAAUAGAUUGCAUCGGUUUAAAAGGCAAGACCGUCAAAUUGCGGGAAAGGGGUCAACAGCCGUUCAGUACCAAGUCUCAGGGGAAACUUUGAGAUGGCCUUGCAAAGGGUAUGGUAAUAAGCUGACGGACAUGGUCCUAACCACGCAGCCAAGUCCUAAGUCAACAGAUCUUCUGUUGAUAUGGAUGCAGUUCACAGACUAAAUGUCGGUCGGGGAAGAUGUAUUCUUCUCAUAAGAUAUAGUCGGACCUCUCCUUAAUGGGAGCUAGCGGAUGAAGUGAUGCAACACUGGAGCCGCUGGGAACUAAUUUGUAUGCGAAAGUAUAUUGAUUAGUUUUGGAGUACUCGUGGUCG
Outline: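 Six replicate transformations of E. coli BL21(DE3) with a pET-22b(+) library were grown overnight at 37°C or 30°C. The library randomised all eight P1ex-region intron nucleotides, the intron lying in the knt kanamycin-resistance gene, and plates were LB agar with or without 25 μg/mL kanamycin plus 100 μg/mL carbenicillin, 50 μM IPTG and 0.2% rhamnose. Pooled colonies were amplicon-sequenced on an Illumina HiSeq 2500, and fitness is the DiMSum error-weighted combination of wild-type-normalised replicate fold changes, kanamycin versus none.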

Sequence: UGGGAGCAAUAUUACGGCAG
- self-splicing fitness (ln) (30 °C): -3.28 ± 0.21
- self-splicing fitness (ln) (37 °C): -1.34 ± 0.17

Sequence: UGGGAGCAAUAUUACGGCCU
- self-splicing fitness (ln) (30 °C): -2.18 ± 0.16
- self-splicing fitness (ln) (37 °C): -1.9 ± 0.2

Sequence: UGGGAGCAAUAUUACGGCGC
- self-splicing fitness (ln) (30 °C): -1.12 ± 0.38

Sequence: UGGGAGCAAUAUUACGGGAA
- self-splicing fitness (ln) (30 °C): -2.98 ± 0.3
- self-splicing fitness (ln) (37 °C): -1.87 ± 0.24

Sequence: UGGGAGCAAUAUUACGGGUA
- self-splicing fitness (ln) (30 °C): -2.68 ± 0.32
- self-splicing fitness (ln) (37 °C): -2.33 ± 0.37

Sequence: UGGGAGCAAUAUUACGUAUG
- self-splicing fitness (ln) (30 °C): -3.01 ± 0.14
- self-splicing fitness (ln) (37 °C): -1.84 ± 0.22

Sequence: UGGGAGCAAUAUUACGUGCG
- self-splicing fitness (ln) (30 °C): -1.56 ± 0.11
- self-splicing fitness (ln) (37 °C): -0.551 ± 0.14

Sequence: UGGGAGCAAUAUUACGUUAA
- self-splicing fitness (ln) (30 °C): -2.76 ± 0.33

Sequence: UGGGAGCAAUAUUACGUUCA
- self-splicing fitness (ln) (30 °C): -0.406 ± 0.091
- self-splicing fitness (ln) (37 °C): -0.266 ± 0.12

Sequence: UGGUAGCAAUAUUACGACAU
- self-splicing fitness (ln) (30 °C): -1.39 ± 0.015
- self-splicing fitness (ln) (37 °C): -0.583 ± 0.034

Sequence: UGGUAGCAAUAUUACGACUC
- self-splicing fitness (ln) (30 °C): -0.656 ± 0.23
- self-splicing fitness (ln) (37 °C): -0.807 ± 0.35

Sequence: UGGUAGCAAUAUUACGAGGU
- self-splicing fitness (ln) (30 °C): -2.63 ± 0.45
- self-splicing fitness (ln) (37 °C): -2.6 ± 0.35

Sequence: UGGUAGCAAUAUUACGAUCG
- self-splicing fitness (ln) (30 °C): 0.32 ± 0.085
- self-splicing fitness (ln) (37 °C): 0.623 ± 0.11

Sequence: UGGUAGCAAUAUUACGAUGA
- self-splicing fitness (ln) (30 °C): -0.831 ± 0.13
- self-splicing fitness (ln) (37 °C): -0.597 ± 0.19

Sequence: UGGUAGCAAUAUUACGAUUA
- self-splicing fitness (ln) (30 °C): -0.395 ± 0.055
- self-splicing fitness (ln) (37 °C): 0.0463 ± 0.066

Sequence: UGGUAGCAAUAUUACGCGGU
- self-splicing fitness (ln) (37 °C): -2.58 ± 0.45

Sequence: UGGUAGCAAUAUUACGCUCG
- self-splicing fitness (ln) (30 °C): 0.322 ± 0.17
- self-splicing fitness (ln) (37 °C): 0.532 ± 0.25

Sequence: UGGUAGCAAUAUUACGCUUG
- self-splicing fitness (ln) (30 °C): -0.988 ± 0.092
- self-splicing fitness (ln) (37 °C): -0.402 ± 0.11

Sequence: UGGUAGCAAUAUUACGGCUA
- self-splicing fitness (ln) (30 °C): -1.37 ± 0.2
- self-splicing fitness (ln) (37 °C): -0.75 ± 0.19

Sequence: UGGUAGCAAUAUUACGGGAU
- self-splicing fitness (ln) (30 °C): -3.14 ± 0.36
- self-splicing fitness (ln) (37 °C): -2.32 ± 0.28

Sequence: UGGUAGCAAUAUUACGUAGC
- self-splicing fitness (ln) (30 °C): -1.3 ± 0.2
- self-splicing fitness (ln) (37 °C): -0.833 ± 0.27

Sequence: UGGUAGCAAUAUUACGUCUU
- self-splicing fitness (ln) (30 °C): -0.526 ± 0.12
- self-splicing fitness (ln) (37 °C): 0.37 ± 0.13

Sequence: UGGUAGCAAUAUUACGUGCC
- self-splicing fitness (ln) (30 °C): -1.42 ± 0.21
- self-splicing fitness (ln) (37 °C): -2.45 ± 0.39

Sequence: UGGUAGCAAUAUUACGUUAC
- self-splicing fitness (ln) (30 °C): -2.42 ± 0.37

Sequence: UGGUAGCAAUAUUACGUUAG
- self-splicing fitness (ln) (30 °C): -1.9 ± 0.067
- self-splicing fitness (ln) (37 °C): -0.599 ± 0.072

Sequence: UGGUAGCAAUAUUACGUUUU
- self-splicing fitness (ln) (30 °C): -3.96 ± 0.24
- self-splicing fitness (ln) (37 °C): -2.32 ± 0.16

Sequence: UGUAAGCAAUAUUACGAAGC
- self-splicing fitness (ln) (30 °C): -3.44 ± 0.28
- self-splicing fitness (ln) (37 °C): -2.61 ± 0.34

Sequence: UGUAAGCAAUAUUACGACUG
- self-splicing fitness (ln) (30 °C): -0.779 ± 0.11
- self-splicing fitness (ln) (37 °C): -1.14 ± 0.14

Sequence: UGUAAGCAAUAUUACGAGAG
- self-splicing fitness (ln) (30 °C): -3.81 ± 0.23
- self-splicing fitness (ln) (37 °C): -1.87 ± 0.25

Sequence: UGUAAGCAAUAUUACGAGCC
- self-splicing fitness (ln) (30 °C): -1.57 ± 0.35
- self-splicing fitness (ln) (37 °C): -0.838 ± 0.43

Sequence: UGUAAGCAAUAUUACGCAAG
- self-splicing fitness (ln) (30 °C): -2.85 ± 0.39
- self-splicing fitness (ln) (37 °C): -2.66 ± 0.44

Sequence: UGUAAGCAAUAUUACGCCAU
- self-splicing fitness (ln) (30 °C): -3.9 ± 0.27
- self-splicing fitness (ln) (37 °C): -3.35 ± 0.3

Sequence: UGUAAGCAAUAUUACGGAAU
- self-splicing fitness (ln) (37 °C): -2.49 ± 0.26

Sequence: UGUAAGCAAUAUUACGGACG
- self-splicing fitness (ln) (30 °C): -0.142 ± 0.11
- self-splicing fitness (ln) (37 °C): 0.762 ± 0.14

Sequence: UGUAAGCAAUAUUACGUACC
- self-splicing fitness (ln) (30 °C): -1.07 ± 0.34
- self-splicing fitness (ln) (37 °C): -0.216 ± 0.26

Sequence: UGUAAGCAAUAUUACGUAGA
- self-splicing fitness (ln) (30 °C): -0.696 ± 0.12
- self-splicing fitness (ln) (37 °C): -0.209 ± 0.16

Sequence: UGUAAGCAAUAUUACGUUGA
- self-splicing fitness (ln) (30 °C): -2.71 ± 0.18
- self-splicing fitness (ln) (37 °C): -1.28 ± 0.16

Sequence: UGUAAGCAAUAUUACGUUGU
- self-splicing fitness (ln) (30 °C): -3.79 ± 0.21
- self-splicing fitness (ln) (37 °C): -2.98 ± 0.29

Sequence: UGUCAGCAAUAUUACGACUA
- self-splicing fitness (ln) (30 °C): -0.425 ± 0.073
- self-splicing fitness (ln) (37 °C): 0.686 ± 0.11

Sequence: UGUCAGCAAUAUUACGAGAC
- self-splicing fitness (ln) (37 °C): -2.91 ± 0.29
